According to patent US20160237160A1 (Bayer, published 2016):

What was measured:
Assay in all cases: ELISA, IgG coated 1 ug/ml, HEK293 supernatant titrated
[1] = molecular target: T1, TPP-2608 (TweakR-ECD-34-68-hIgGFc-His-R38A) (human)
T1 construct: used as HEK293 supernatant
Description: (§1) These TWEAKR(34-68)-Fc muteins were expressed in HEK293 cells. To collect dose-response data, IgGs were coated at a concentration of 1 μg/ml in a 384-well Maxisorp ELISA plate and a serial 2fold dilution of the TWEAKR mutein containing supernatant was used as soluble binding partner. Detection was done with anti-HIS-HRP and Amplex Red.

[2] = molecular target: T2, TPP-2620 (TweakR-ECD-34-68-hIgGFc-His-P59A) (human)
T2 construct: used as HEK293 supernatant
Description: as §1

[3] = molecular target: T3, TPP-2617 (TweakR-ECD-34-68-hIgGFc-His-S54A) (human)
T3 construct: used as HEK293 supernatant
Description: as §1

[4] = molecular target: T4, TPP-2618 (TweakR-ECD-34-68-hIgGFc-His-R56A) (human)
T4 construct: used as HEK293 supernatant
Description: as §1

[5] = molecular target: TPP-2610 (TweakR-ECD-34-68-hIgGFc-His-S41A) (human)
Description: as §1

[6] = molecular target: T5, TPP-2621 (TweakR-ECD-34-68-hIgGFc-His-H60A) (human)
T5 construct: used as HEK293 supernatant
Description: as §1

[7] = molecular target: T6, TPP-2615 (TweakR-ECD-34-68-hIgGFc-His-K48A) (human)
T6 construct: used as HEK293 supernatant
Description: as §1

[8] = molecular target: T7, TPP-2613 (TweakR-ECD-34-68-hIgGFc-His-D45A) (human)
T7 construct: used as HEK293 supernatant
Description: as §1

[9] = molecular target: T8, TPP-2623 (TweakR-ECD-34-68-hIgGFc-His-D62A) (human)
T8 construct: used as HEK293 supernatant
Description: as §1

binding result [1]: no binding | binding result [2]: no binding | binding result [3]: no binding | binding result [4]: no binding | binding result [5]: no binding | binding result [6]: no binding | binding result [7]: no binding | binding result [8]: no binding | binding result [9]: no binding
B1: P4A8(TPP-1324) (antibody, human IgG1, kappa, V domains shown)
VH: QVQLVQSGAEVKKPGASVKVSCKGSGYTFTDYGMHWVRQAPGQGLEWMGVISTYNGYTNYNQKFKGRVTMTVDKSTSTAYMELRSLRSDDTAVYYCARAYYGNLYYAMDYWGQGTLVTVSS
VL: DIVLTQSPASLAVSLGQRATISCRASKSVSTSSYSYMHWYQQKPGQPPKLLIKYASNLESGVPARFSGSGSGTDFSLNIHPMEEDDTAMYFCQHSRELPFTFGGGTKLEIKR
notes: Human IgG1; variable domains from WO2009/140177 with constant region added
